In article PMC2894052 one finds mMTase activity (DMB assay, incorporation of 3H-radiolabelled methyl groups) of Dnmt1 with an equimolar quantity of PCNA, against that of pDnmt1^S127/S143 and pDnmt1^S127 and mMTase activity (DMB assay, incorporation of 3H-radiolabelled methyl groups) of Dnmt1 with an equimolar quantity of UHRF1, against that of pDnmt1^S127/S143 and pDnmt1^S127 data, which are given here for two substances.

This assay addresses recombinant Dnmt1 protein (Dnmt1^R), not treated with a kinase (human) (UniProt P26358).
UniProt P26358, sequence (P26358 whole entry): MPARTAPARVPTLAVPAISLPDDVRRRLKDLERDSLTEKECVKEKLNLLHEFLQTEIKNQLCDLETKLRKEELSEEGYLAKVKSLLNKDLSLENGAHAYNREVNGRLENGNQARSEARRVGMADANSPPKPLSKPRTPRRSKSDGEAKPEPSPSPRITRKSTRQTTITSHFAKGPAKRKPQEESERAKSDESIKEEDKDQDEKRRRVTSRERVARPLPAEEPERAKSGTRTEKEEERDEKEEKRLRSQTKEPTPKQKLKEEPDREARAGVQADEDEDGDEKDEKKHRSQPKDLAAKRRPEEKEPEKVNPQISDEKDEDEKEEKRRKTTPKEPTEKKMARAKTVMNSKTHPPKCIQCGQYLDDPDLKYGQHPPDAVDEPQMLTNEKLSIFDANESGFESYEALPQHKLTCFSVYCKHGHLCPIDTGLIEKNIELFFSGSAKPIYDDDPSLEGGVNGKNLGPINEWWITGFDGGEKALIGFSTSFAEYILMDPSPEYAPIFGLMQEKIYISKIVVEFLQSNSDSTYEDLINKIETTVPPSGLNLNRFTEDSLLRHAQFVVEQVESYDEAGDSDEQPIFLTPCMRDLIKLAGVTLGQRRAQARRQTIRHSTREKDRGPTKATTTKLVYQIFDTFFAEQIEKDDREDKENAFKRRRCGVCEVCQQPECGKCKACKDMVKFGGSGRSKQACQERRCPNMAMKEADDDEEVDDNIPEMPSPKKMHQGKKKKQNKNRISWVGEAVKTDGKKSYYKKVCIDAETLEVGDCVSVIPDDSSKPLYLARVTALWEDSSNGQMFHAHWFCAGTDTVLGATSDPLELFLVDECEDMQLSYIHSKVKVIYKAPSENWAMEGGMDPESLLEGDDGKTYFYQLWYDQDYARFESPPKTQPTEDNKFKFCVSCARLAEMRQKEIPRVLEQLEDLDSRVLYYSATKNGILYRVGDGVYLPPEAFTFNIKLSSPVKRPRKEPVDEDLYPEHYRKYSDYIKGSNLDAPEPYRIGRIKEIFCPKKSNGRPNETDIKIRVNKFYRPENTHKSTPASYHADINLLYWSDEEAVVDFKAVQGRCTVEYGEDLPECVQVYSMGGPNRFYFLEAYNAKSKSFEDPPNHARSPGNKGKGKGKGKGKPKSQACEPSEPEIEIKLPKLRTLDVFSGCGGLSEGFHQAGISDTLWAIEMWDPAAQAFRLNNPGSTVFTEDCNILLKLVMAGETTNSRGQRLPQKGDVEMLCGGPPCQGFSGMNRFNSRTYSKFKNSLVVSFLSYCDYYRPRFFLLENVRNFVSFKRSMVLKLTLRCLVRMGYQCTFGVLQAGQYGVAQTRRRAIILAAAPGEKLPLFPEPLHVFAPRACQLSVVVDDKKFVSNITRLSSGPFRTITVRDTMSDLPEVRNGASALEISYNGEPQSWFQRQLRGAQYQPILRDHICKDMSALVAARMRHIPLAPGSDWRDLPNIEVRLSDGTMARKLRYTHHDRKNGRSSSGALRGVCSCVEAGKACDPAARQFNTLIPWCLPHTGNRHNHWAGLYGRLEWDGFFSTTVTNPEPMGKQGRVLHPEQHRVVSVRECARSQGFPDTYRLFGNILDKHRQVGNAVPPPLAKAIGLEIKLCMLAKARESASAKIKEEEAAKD

As to “GST-PCNA (from UniProt P12004 1-261) (natural protein)”, the mMTase activity (DMB assay, incorporation of 3H-radiolabelled methyl groups) of Dnmt1 with an equimolar quantity of PCNA, against that of pDnmt1^S127/S143 and pDnmt1^S127 came to 5 fold. With “GST-UHRF1 (from UniProt Q96T88 1-793) (natural protein)”, the mMTase activity (DMB assay, incorporation of 3H-radiolabelled methyl groups) of Dnmt1 with an equimolar quantity of UHRF1, against that of pDnmt1^S127/S143 and pDnmt1^S127 worked out at 4 fold.
